“And” between values parts separate entries of the source, which are not always exact repeats. Identical values can stand only once. Like-named read-outs stand apart in the source and are kept apart here.
Columns and labels:
Human OSM [1] = target: T1, Human OSM (human, UniProt P13725 26-221); experiment: Kinexa solution phase affinity
T1 construct: Recombinant human OSM; also called hOSM; human Oncostatin M
T1 sequence: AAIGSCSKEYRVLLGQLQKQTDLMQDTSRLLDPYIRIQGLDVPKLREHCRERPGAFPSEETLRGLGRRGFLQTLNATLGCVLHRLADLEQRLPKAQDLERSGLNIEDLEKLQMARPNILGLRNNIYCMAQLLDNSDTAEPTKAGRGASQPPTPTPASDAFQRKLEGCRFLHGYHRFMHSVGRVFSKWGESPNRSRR
Experimental: (§1) Kinexa (Sapidyne Instruments 3200) solution phase affinity was used to determine the overall affinity of anti-OSM antibody H0(huCDRH1)L1 and Humanised 15E10 (an unrelated OSM antibody) to human, cynomolgus macaque, rhesus macaque and marmoset OSM (Table 15). Humanised 15E10 was added for comparison purposes.
(§2) OSM beads were prepared either by adsorption (polymethylmethacrylate beads-PMMA) or amine coupling (NHS-activated sepharose beads). The range of OSM molecules studied necessitated the generation of beads coated with different concentrations of OSM. For the solution phase portion of the assay, a fixed concentration of antibody was incubated with a broad range of OSM concentrations and allowed to reach equilibrium by incubation at r.t. for at least 2 h before analysis proceeded. The OSM beads were then used to determine the amount of free antibody present in the solution phase samples, by means of the free antibody binding to the OSM bead matrix then detected using an appropriate secondary antibody (either anti-human or anti-mouse depending on the construct being tested) labelled with a fluorescent dye. The binding curves where fitted using the Kinexa Pro analysis software inherent to the machine. Multiple runs using varying starting concentrations of antibody were then compiled and analysed using the n-curve analysis software to give a more accurate determination of affinity.

Cynomolgus OSM [2] = target: T2, Cynomolgus OSM (cynomolgus, UniProt A0A2K5VPC6 26-221); experiment: Kinexa solution phase affinity
T2 construct: also called Cyno OSM; cynomolgus macaque OSM
T2 sequence: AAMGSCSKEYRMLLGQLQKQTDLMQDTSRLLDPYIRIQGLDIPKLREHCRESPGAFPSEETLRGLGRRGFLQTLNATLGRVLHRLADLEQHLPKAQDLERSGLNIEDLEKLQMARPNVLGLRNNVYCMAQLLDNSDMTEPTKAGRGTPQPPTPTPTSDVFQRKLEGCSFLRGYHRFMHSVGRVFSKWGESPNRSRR
Experimental: as §1, §2

Marmoset OSM [3] = target: T3, Marmoset OSM (marmoset); experiment: Kinexa solution phase affinity
T3 construct: also called Marm OSM
Experimental: as §1, §2

Rhesus OSM = target: T4, Rhesus OSM (rhesus macaque, UniProt F7GF43 26-221); experiment: Kinexa solution phase affinity
T4 construct: also called rhesus macaque OSM
T4 sequence: T2 sequence
Experimental: as §1, §2

Human OSM [4] = target: T1, Human OSM; experiment: cell-based or functional assay
Human OSM [5] = target: T1, Human OSM; experiment: cell-based or functional assay; remark: listed apart in the source
Human OSM [6] = target: T1, Human OSM; experiment: cell-based or functional assay; remark: listed apart in the source
Cynomolgus OSM [7] = target: T2, Cynomolgus OSM; experiment: cell-based or functional assay
[8] = target: T5, Endogenous human OSM (neutrophil-derived) (human, UniProt P13725 26-221, limits assumed); experiment: gp130 ELISA with endogenous neutrophil-derived human OSM
T5 construct: Native OSM generated from GM-CSF stimulation of healthy human neutrophils; also called native OSM; endogenous OSM
T5 sequence: T1 sequence

Human OSM [9] = target: T1, Human OSM; experiment: cell-based or functional assay; remark: listed apart in the source
Human OSM [10] = target: T1, Human OSM; experiment: cell-based or functional assay; remark: listed apart in the source
Human OSM [11] = target: T1, Human OSM; experiment: cell-based or functional assay; remark: listed apart in the source
Cynomolgus OSM [12] = target: T2, Cynomolgus OSM; experiment: cell-based or functional assay; remark: listed apart in the source
Marmoset OSM [13] = target: T3, Marmoset OSM; experiment: cell-based or functional assay
Human OSM [14] = target: T1, Human OSM; experiment: BIAcore kinetics, purified antibody
Cynomolgus OSM [15] = target: T2, Cynomolgus OSM; experiment: BIAcore kinetics, purified antibody
Human OSM [16] = target: T1, Human OSM; experiment: cell-based or functional assay; remark: listed apart in the source
Human OSM [17] = target: T1, Human OSM; experiment: BIAcore, purified antibody
Human OSM [18] = target: T1, Human OSM; experiment: cell-based or functional assay; remark: listed apart in the source
Human OSM [19] = target: T1, Human OSM; experiment: BIAcore kinetics, transfection supernatant
Cynomolgus OSM [20] = target: T2, Cynomolgus OSM; experiment: BIAcore kinetics, transfection supernatant
Human OSM [21] = target: T1, Human OSM; experiment: cell-based or functional assay; remark: listed apart in the source
Human OSM [22] = target: T1, Human OSM; experiment: cell-based or functional assay; remark: listed apart in the source
[23] = target: T5, Endogenous human OSM …; experiment: gp130 ELISA with endogenous neutrophil-derived human OSM; remark: listed apart in the source
Human OSM [24] = target: T1, Human OSM; experiment: human gp130 ELISA, inhibition of OSM binding to gp130
Cynomolgus OSM [25] = target: T2, Cynomolgus OSM; experiment: as above
Human OSM [26] = target: T1, Human OSM; experiment: cell-based or functional assay; remark: listed apart in the source
Cynomolgus OSM [27] = target: T2, Cynomolgus OSM; experiment: cell-based or functional assay; remark: listed apart in the source
Human OSM [28] = target: T1, Human OSM; experiment: BIAcore kinetics
Cynomolgus OSM [29] = target: T2, Cynomolgus OSM; experiment: BIAcore kinetics
Human OSM [30] = target: T1, Human OSM; experiment: BIAcore kinetics; remark: listed apart in the source
Cynomolgus OSM [31] = target: T2, Cynomolgus OSM; experiment: BIAcore kinetics; remark: listed apart in the source
Human OSM [32] = target: T1, Human OSM; experiment: cell-based or functional assay; remark: listed apart in the source
Cynomolgus OSM [33] = target: T2, Cynomolgus OSM; experiment: cell-based or functional assay; remark: listed apart in the source
Human OSM [34] = target: T1, Human OSM; experiment: human gp130 ELISA, inhibition of OSM binding to gp130; remark: listed apart in the source
Cynomolgus OSM [35] = target: T2, Cynomolgus OSM; experiment: as above; remark: listed apart in the source
Human OSM [36] = target: T1, Human OSM; experiment: BIAcore kinetics; remark: listed apart in the source
Cynomolgus OSM [37] = target: T2, Cynomolgus OSM; experiment: BIAcore kinetics; remark: listed apart in the source
Human OSM [38] = target: T1, Human OSM; experiment: cell-based or functional assay; remark: listed apart in the source
[39] = target: T5, Endogenous human OSM …; experiment: gp130 ELISA with endogenous neutrophil-derived human OSM; remark: listed apart in the source
Human OSM [40] = target: T1, Human OSM; experiment: cell-based or functional assay; remark: listed apart in the source

B1: Humanised 10G8 H0(IGHV3-23)L1 (antibody, human IgG1, kappa, V domains shown)
VH: EVQLVESGGGLVQPGGSLRLSCAASGFTFSSYAMSWVRQAPGKGLEWVATISDGGSFTYYLDNVRGRFTISRDNAKNSLYLQMNSLRAEDTAVYYCARDVGHTTFWYFDVWGRGTLVTVSS
VL: DIVMTQSPDSLAVSLGERATINCRASKSVSAAGYNFMHWYQQKPGQPPKVLIYYASNLESGVPDRFSGSGSGTDFTLTISSLQAEDVAVYYCLHSREFPFTFGGGTKVEIKR
notes: IgG1 kappa; also called H0(huCDRH1)L1; H0 (CDRH1 IGHV3_23) L1
With B1 the Kd (Human OSM [1]) was 0.038 nM, the Kd (Cynomolgus OSM [2]) was 0.053 nM and the Kd (Marmoset OSM [3]) was 0.021 nM. For the same binder, the Kd (Rhesus OSM) was 0.122 nM, the “IC50 (read off the curve); IL-6 release from HFLS-RA cells stimulated with 0.3 ng/ml human OSM” value (Human OSM [4]) was ~0.006 nM and the “IC50 (read off the curve); IL-6 release from normal human lung fibroblasts stimulated with 3 ng/ml OSM” value (Human OSM [5]) was ~0.006 µg/mL. For the same binder, the “KB cell neutralisation assay, mean IC50” value (Human OSM [6]) was 0.008 µg/ml and 53 pM, the “KB cell neutralisation assay, mean IC50” value (Cynomolgus OSM [7]) was 0.007 µg/ml and 47 pM and the IC50 [8] was 0.0062 µg/mL and 0.041 nM. The “IC50 (read off the curve); IL-6 release from IPF human lung fibroblasts stimulated with 3 ng/ml OSM” value (Human OSM [9]) was ~0.01 µg/mL, the “IC50 (read off the curve); MCP-1 release from IPF human lung fibroblasts stimulated with 3 ng/ml OSM” value (Human OSM [10]) was ~0.03 µg/mL and the “KB cell neutralisation assay, mean IC50” value (Human OSM [11]) was 0.003 µg/ml and 20 pM. For the same binder, the “KB cell neutralisation assay, mean IC50” value (Cynomolgus OSM [12]) was 0.0041 µg/ml and 27 pM, the “KB cell neutralisation assay, mean IC50” value (Marmoset OSM [13]) was 0.0036 µg/ml and 24 pM and the Kd (Human OSM [14]) was 0.136 nM. It also gave a koff (Human OSM [14]) of 9.65e-05 s⁻¹, a kon (Human OSM [14]) of 709000 M⁻¹ s⁻¹ and a Kd (Cynomolgus OSM [15]) of 0.199 nM. For the same binder, the koff (Cynomolgus OSM [15]) was 8.39e-05 s⁻¹, the kon (Cynomolgus OSM [15]) was 423000 M⁻¹ s⁻¹ and the “IC50 (read off the curve); MCP-1 release from normal human lung fibroblasts stimulated with 3 ng/ml OSM” value (Human OSM [16]) was ~0.01 µg/mL. For the same binder, the “fold increased affinity compared with 15E10h” value (Human OSM [17]) was 6.5 fold, the “IC50 (read off the curve); MCP-1 release from HFLS-RA cells stimulated with 3 ng/ml human OSM” value (Human OSM [18]) was ~0.1 nM and the Kd (Human OSM [19]) was 0.437 nM. The koff (Human OSM [19]) was 0.000158 s⁻¹, the kon (Human OSM [19]) was 361000 M⁻¹ s⁻¹ and the Kd (Cynomolgus OSM [20]) was 0.31 nM. The koff (Cynomolgus OSM [20]) was 0.000109 s⁻¹, the kon (Cynomolgus OSM [20]) was 352000 M⁻¹ s⁻¹ and the “IC50 (read off the curve); IL-6 release from HFLS-RA cells stimulated with 3 ng/ml human OSM” value (Human OSM [21]) was ~0.1 nM. The “IC50 (read off the curve); MCP-1 release from HFLS-RA cells stimulated with 0.3 ng/ml human OSM” value (Human OSM [22]) was ~0.005 nM and the “fold increase in potency compared with 15E10h” value [23] was ~12 fold.

B2: anti human OSM mAb S168110G08(1)1A09 (10G8), murine (antibody, V domains shown)
VH: EMQLVESGEGLVEPGGSLKLSCAASGFTFSNYAMSWVRQTPEKSLEWVATISDGGSFTYYLDNVRGRFTISRDNAKNNLYLQMSHLKSDDTAMYYCARDVGHTTFWYFDVWGSGTAVTVSS
VL: DIVLTQSPVFLVVSLGQRATISCRASKSVSAAGYNFMHWYQQKPGQPPKVLIKYASNLESGVPARFSGSGSGTDFTLNIHPVEEEDAVTYYCLHSREFPFTFGGGTNLEIK
notes: Mouse hybridoma mAb; also called 10G8/A9; 10G8.A9
B2 was tested, and the IC50 (Human OSM [24]) was 0.06 µg/mL and 0.4 nM, the IC50 (Cynomolgus OSM [25]) was 0.01 µg/mL and 0.04 nM and the “KB cell neutralisation assay, mean IC50” value (Human OSM [26]) was 0.008 µg/ml and 53 pM. For the same binder, the “KB cell neutralisation assay, mean IC50” value (Cynomolgus OSM [27]) was 0.006 µg/ml and 40 pM, the Kd (Human OSM [28]) was 0.549 nM and the koff (Human OSM [28]) was 6.14e-05 s⁻¹. For the same binder, the kon (Human OSM [28]) was 112000 M⁻¹ s⁻¹, the Kd (Cynomolgus OSM [29]) was 0.308 nM and the koff (Cynomolgus OSM [29]) was 2.99e-05 s⁻¹. The kon (Cynomolgus OSM [29]) was 96900 M⁻¹ s⁻¹, the Kd (Human OSM [30]) was 0.55 nM and the Kd (Cynomolgus OSM [31]) was 0.308 nM. The IC50 [8] was 0.009 µg/mL and 0.06 nM, the “KB cell neutralisation assay, mean IC50” value (Human OSM [32]) was 0.054 µg/ml and 360 pM and the “KB cell neutralisation assay, mean IC50” value (Cynomolgus OSM [33]) was 0.034 µg/ml and 227 pM. For the same binder, the “KB cell neutralisation assay, mean IC50” value (Human OSM [11]) was 0.0026 µg/ml and 17 pM, the “KB cell neutralisation assay, mean IC50” value (Cynomolgus OSM [12]) was 0.0017 µg/ml and 11 pM and the “KB cell neutralisation assay, mean IC50” value (Marmoset OSM [13]) was 0.0017 µg/ml and 11 pM. For the same binder, the IC50 (Human OSM [34]) was 0.044 µg/mL and 0.293 nM, the IC50 (Cynomolgus OSM [35]) was 0.017 µg/mL and 0.113 nM and the “fold increased affinity compared with 15E10” value (Human OSM [36]) was 8 fold. For the same binder, the “fold increased affinity compared with 15E10” value (Cynomolgus OSM [37]) was 11 fold, the “KB cell neutralisation assay, potency compared with 15E10” value (Human OSM [38]) was 15 fold and the IC50 [39] was 0.009 µg/mL and 0.06 nM. The “IC50 (read off the curve); IL-6 release from KB cells stimulated with human OSM, 25% human AB serum” value (Human OSM [40]) was ~0.02 µg/mL.

— patent US20130251724A1 (GlaxoSmithKline, published 2013)
